Each block holds one molecule with its values, some of them ahead of it.
T1: human brevican (human, UniProt Q96GW7 23-911, limits assumed)
T1 construct: Proteoglycan immobilized on the SPR chip
T1 sequence (looked up): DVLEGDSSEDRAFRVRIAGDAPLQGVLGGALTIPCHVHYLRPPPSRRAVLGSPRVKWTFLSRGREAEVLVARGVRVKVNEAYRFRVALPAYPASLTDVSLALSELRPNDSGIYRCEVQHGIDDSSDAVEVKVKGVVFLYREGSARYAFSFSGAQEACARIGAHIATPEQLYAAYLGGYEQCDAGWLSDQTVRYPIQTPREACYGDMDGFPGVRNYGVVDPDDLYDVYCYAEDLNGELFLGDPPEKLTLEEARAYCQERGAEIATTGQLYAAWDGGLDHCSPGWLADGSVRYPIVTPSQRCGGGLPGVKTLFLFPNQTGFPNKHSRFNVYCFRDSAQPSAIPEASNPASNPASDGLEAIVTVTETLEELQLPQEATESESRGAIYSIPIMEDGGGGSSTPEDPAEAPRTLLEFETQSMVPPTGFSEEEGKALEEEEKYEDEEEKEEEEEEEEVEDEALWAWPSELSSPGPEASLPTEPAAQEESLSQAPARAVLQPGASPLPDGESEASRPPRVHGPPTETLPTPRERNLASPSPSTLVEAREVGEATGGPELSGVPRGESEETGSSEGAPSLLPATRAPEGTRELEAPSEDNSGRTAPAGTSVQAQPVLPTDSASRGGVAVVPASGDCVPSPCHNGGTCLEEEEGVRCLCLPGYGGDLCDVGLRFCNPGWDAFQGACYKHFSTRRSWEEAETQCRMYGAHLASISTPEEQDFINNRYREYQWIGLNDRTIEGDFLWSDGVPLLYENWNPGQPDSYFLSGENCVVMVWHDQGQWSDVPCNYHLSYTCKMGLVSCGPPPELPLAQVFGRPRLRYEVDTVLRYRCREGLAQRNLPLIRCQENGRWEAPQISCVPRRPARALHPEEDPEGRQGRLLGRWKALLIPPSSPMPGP

B1: human tenascin-R (hTN-R) (other, UniProt Q92752 32-1358, looked up)
chain: QLEVTTERVQRQSVEEEGGIANYNTSSKEQPVVFNHVYNINVPLDNLCSSGLEASAEQEVSAEDETLAEYMGQTSDHESQVTFTHRINFPKKACPCASSAQVLQELLSRIEMLEREVSVLRDQCNANCCQESAATGQLDYIPHCSGHGNFSFESCGCICNEGWFGKNCSEPYCPLGCSSRGVCVDGQCICDSEYSGDDCSELRCPTDCSSRGLCVDGECVCEEPYTGEDCRELRCPGDCSGKGRCANGTCLCEEGYVGEDCGQRQCLNACSGRGQCEEGLCVCEEGYQGPDCSAVAPPEDLRVAGISDRSIELEWDGPMAVTEYVISYQPTALGGLQLQQRVPGDWSGVTITELEPGLTYNISVYAVISNILSLPITAKVATHLSTPQGLQFKTITETTVEVQWEPFSFSFDGWEISFIPKNNEGGVIAQVPSDVTSFNQTGLKPGEEYIVNVVALKEQARSPPTSASVSTVIDGPTQILVRDVSDTVAFVEWIPPRAKVDFILLKYGLVGGEGGRTTFRLQPPLSQYSVQALRPGSRYEVSVSAVRGTNESDSATTQFTTEIDAPKNLRVGSRTATSLDLEWDNSEAEVQEYKVVYSTLAGEQYHEVLVPRGIGPTTRATLTDLVPGTEYGVGISAVMNSQQSVPATMNARTELDSPRDLMVTASSETSISLIWTKASGPIDHYRITFTPSSGIASEVTVPKDRTSYTLTDLEPGAEYIISVTAERGRQQSLESTVDAFTGFRPISHLHFSHVTSSSVNITWSDPSPPADRLILNYSPRDEEEEMMEVSLDATKRHAVLMGLQPATEYIVNLVAVHGTVTSEPIVGSITTGIDPPKDITISNVTKDSVMVSWSPPVASFDYYRVSYRPTQVGRLDSSVVPNTVTEFTITRLNPATEYEISLNSVRGREESERICTLVHTAMDNPVDLIATNITPTEALLQWKAPVGEVENYVIVLTHFAVAGETILVDGVSEEFRLVDLLPSTHYTATMYATNGPLTSGTISTNFSTLLDPPANLTASEVTRQSALISWQPPRAEIENYVLTYKSTDGSRKELIVDAEDTWIRLEGLLENTDYTVLLQAAQDTTWSSITSTAFTTGGRVFPHPQDCAQHLMNGDTLSGVYPIFLNGELSQKLQVYCDMTTDGGGWIVFQRRQNGQTDFFRKWADYRVGFGNVEDEFWLGLDNIHRITSQGRYELRVDMRDGQEAAFASYDRFSVEDSRNLYKLRIGSYNGTAGDSLSYHQGRPFSTEDRDNDVAVTNCAMSYKGAWWYKNCHRTNLNGKYGESRHSQGINWYHWKGHEFSIPFVEMKMRPYNHRLMAGRKRQSLQF
notes: Extracellular matrix protein used as analyte in SPR
B2: FLAG-tagged human CSF-1 (ligand, UniProt P09603 33-255, looked up)
chain: EEVSEYCSHMIGSGHLQSLQRLIDSQMETSCQITFEFVDQEQLKDPVCYLKKAFLLVQDIMEDTMRFRDNTPNAIAIVQLQELSLRLKSCFTKDYEEHDKACVRTFYETPLQLLEKVKNVFNETKNLLDKDWNIFSKNCNNSFAECSSQDVVTKPDCNCLYPKAIPSSDPASVSPHQPLAPSMAPVAGLTWEDSEGTEGSSLLPGEQPLHTVDPGSAKQRPPR
notes: also called CSF-1-FLAG; not shown: FLAG tag
B3: human recombinant CSF-1 (colony stimulating factor-1) (ligand, UniProt P09603 36-253, looked up)
chain: SEYCSHMIGSGHLQSLQRLIDSQMETSCQITFEFVDQEQLKDPVCYLKKAFLLVQDIMEDTMRFRDNTPNAIAIVQLQELSLRLKSCFTKDYEEHDKACVRTFYETPLQLLEKVKNVFNETKNLLDKDWNIFSKNCNNSFAECSSQDVVTKPDCNCLYPKAIPSSDPASVSPHQPLAPSMAPVAGLTWEDSEGTEGSSLLPGEQPLHTVDPGSAKQRP
notes: also called hCSF-1
B4: human IL-34 (interleukin-34) (ligand, UniProt Q6ZMJ4 21-242, looked up)
chain: NEPLEMWPLTQNEECTVTGFLRDKLQYRSRLQYMKHYFPINYKISVPYEGVFRIANVTRLQRAQVSERELRYLWVLVSLSATESVQDVLLEGHPSWKYLQEVETLLLNVQQGLTDVEVSPKVESVLSLLNAPGPNLKLVRPKALLDNCFRVMELLYCSCCKQSSVLNWQDCEVPSPQSCSPEPSLQYAATQLYPPPPWSPSSPPHSTGSVRPVRAQGEGLLP
modifications: biotinylated with EZ-Link Sulfo-NHS-LC-LC-Biotin in the pull-down and flow cytometry assays; unlabelled in SPR
notes: Purified protein; also called hIL-34; biotinylated hIL-34
B5: FLAG-tagged human IL-34 (ligand, UniProt Q6ZMJ4 21-242, looked up)
chain: B4 chain
notes: also called IL-34-FLAG; not shown: FLAG tag

Key:
[1] = biological target: human PTP-ζ (protein tyrosine phosphatase receptor type zeta) of U251 human glioblastoma cells (human) (UniProt P23471); assay: cell-based or functional assay
human PTP-ζ (protein tyrosine phosphatase receptor type zeta) of U251 human glioblastoma cells (human), sequence (P23471 25-2315 limits assumed): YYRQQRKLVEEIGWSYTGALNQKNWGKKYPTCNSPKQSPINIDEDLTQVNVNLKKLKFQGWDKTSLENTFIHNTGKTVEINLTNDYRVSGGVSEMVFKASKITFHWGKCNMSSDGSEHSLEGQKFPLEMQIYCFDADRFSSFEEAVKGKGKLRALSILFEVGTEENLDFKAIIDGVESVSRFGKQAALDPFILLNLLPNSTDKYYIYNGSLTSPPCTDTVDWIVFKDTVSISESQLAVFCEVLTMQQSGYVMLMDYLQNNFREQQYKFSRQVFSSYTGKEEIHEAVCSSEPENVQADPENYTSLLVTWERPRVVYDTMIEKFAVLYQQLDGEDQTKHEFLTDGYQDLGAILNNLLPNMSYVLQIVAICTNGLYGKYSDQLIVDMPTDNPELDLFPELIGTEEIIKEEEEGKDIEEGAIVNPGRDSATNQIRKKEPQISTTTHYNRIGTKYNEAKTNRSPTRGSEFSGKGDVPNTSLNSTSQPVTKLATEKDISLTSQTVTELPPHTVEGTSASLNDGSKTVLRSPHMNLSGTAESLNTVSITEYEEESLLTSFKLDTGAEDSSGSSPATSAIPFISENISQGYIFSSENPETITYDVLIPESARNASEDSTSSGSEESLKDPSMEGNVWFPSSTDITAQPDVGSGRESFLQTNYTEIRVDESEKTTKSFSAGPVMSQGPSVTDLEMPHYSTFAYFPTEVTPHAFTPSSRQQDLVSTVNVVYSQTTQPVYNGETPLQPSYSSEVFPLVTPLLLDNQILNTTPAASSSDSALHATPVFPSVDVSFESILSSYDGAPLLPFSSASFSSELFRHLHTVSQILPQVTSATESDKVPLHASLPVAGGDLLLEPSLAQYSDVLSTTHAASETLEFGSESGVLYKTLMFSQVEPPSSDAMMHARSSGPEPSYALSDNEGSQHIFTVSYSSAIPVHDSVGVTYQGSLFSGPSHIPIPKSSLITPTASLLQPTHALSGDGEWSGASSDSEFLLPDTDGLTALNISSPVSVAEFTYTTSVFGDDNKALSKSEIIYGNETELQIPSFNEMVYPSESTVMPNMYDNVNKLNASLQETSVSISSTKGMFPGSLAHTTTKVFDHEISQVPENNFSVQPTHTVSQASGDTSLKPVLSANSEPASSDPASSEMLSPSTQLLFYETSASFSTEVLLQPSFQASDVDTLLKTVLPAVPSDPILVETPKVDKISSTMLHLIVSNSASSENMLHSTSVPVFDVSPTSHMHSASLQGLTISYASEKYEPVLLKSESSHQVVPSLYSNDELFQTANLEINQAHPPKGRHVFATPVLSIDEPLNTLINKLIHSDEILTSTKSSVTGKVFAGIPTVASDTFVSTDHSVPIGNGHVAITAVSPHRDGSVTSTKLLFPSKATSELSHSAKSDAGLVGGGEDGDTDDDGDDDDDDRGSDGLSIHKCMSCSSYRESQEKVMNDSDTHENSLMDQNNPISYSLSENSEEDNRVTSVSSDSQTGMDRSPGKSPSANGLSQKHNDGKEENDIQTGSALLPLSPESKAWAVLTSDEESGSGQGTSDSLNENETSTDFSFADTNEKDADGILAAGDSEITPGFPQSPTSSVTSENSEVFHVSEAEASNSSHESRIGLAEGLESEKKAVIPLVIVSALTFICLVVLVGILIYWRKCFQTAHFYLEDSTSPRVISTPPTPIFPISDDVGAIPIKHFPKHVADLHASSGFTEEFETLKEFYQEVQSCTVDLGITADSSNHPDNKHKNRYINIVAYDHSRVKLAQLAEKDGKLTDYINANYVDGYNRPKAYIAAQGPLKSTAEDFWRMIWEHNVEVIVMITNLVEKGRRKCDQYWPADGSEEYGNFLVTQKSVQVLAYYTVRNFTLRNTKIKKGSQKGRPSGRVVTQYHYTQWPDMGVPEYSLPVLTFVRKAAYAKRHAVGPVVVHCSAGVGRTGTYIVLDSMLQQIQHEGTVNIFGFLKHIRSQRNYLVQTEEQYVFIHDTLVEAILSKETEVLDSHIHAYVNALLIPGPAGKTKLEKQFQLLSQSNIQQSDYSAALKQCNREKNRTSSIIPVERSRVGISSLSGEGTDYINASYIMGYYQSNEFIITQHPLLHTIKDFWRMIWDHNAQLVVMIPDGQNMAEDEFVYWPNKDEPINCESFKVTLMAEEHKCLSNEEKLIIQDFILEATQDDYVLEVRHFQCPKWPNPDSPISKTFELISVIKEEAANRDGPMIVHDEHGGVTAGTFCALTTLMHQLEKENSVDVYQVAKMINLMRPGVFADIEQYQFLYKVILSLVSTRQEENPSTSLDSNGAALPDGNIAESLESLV

[2] = biological target: T2, human PTP-ζ extracellular domain fused to immunoglobulin Fc domain (hPTP-ζ-ECD-Fc) (human, UniProt P23471 25-1636); assay: SPR (Biacore 3000), hPTP-ζ ECD-Fc immobilized on CM5 chip, hTN-R as analyte, steady state model; TN-R with hPTP-ζ ECD-Fc
T2 construct: also called full-length hPTP-ζ ECD-Fc; not shown: immunoglobulin Fc domain
T2 sequence (P23471 25-1636): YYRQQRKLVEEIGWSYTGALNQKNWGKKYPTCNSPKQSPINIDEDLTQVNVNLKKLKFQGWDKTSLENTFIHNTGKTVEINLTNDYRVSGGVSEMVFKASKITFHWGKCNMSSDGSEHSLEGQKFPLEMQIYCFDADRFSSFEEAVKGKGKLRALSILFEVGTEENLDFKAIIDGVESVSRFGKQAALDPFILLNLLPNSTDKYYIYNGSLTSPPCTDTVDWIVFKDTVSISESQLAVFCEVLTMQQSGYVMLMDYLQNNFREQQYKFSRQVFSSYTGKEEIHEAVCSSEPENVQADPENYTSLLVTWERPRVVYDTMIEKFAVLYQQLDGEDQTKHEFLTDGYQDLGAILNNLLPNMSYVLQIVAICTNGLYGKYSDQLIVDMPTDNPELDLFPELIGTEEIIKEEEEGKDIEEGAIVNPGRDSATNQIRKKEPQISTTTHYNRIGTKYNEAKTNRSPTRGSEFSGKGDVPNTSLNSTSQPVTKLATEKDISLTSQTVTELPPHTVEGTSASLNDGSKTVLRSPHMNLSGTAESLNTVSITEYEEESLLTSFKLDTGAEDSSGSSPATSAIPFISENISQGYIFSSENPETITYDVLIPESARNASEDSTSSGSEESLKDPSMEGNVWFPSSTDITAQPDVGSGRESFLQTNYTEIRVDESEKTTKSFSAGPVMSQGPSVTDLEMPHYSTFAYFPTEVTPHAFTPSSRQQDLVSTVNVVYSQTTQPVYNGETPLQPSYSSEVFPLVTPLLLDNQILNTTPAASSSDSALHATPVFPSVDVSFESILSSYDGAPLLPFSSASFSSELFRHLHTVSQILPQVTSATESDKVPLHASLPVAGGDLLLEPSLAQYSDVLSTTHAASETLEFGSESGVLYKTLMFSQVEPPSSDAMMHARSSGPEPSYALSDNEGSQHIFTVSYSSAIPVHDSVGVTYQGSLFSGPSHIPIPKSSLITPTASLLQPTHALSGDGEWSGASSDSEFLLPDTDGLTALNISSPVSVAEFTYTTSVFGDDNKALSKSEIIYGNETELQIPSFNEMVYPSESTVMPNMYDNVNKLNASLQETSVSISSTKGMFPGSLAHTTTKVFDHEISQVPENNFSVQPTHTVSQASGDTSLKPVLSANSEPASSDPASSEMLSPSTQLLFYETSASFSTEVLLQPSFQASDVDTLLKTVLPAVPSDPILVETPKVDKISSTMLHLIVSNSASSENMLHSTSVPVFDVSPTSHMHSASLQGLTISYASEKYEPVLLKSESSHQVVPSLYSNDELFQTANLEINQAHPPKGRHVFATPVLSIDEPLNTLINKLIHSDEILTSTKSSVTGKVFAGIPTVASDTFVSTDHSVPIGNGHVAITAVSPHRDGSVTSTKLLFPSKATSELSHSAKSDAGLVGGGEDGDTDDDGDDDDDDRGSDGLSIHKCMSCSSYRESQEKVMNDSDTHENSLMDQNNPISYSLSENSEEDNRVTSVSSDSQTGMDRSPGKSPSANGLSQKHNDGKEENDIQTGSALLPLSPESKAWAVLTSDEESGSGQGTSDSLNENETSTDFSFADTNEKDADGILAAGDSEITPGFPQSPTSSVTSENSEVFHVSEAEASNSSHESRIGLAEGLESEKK
Procedure: (§1) SPR binding analyses were performed at 25° C. on Biacore instruments. […] The protein A surface was regenerated with 10 mM Glycine-HCl, pH 1.5. […] All sensorgrams were double-referenced.

[3] = biological target: T3, human PTP-ζ (protein tyrosine phosphatase receptor type zeta) of U251 human glioblastoma cells (human, UniProt P23471 25-2315, chondroitin sulfate glycosaminoglycan chains (proteoglycan)); assay: flow cytometry on U251 cells, detection with biotin-labeled anti-FLAG M2 antibody, at concentrations equivalent to IL-34-FLAG
T3 construct: Endogenous protein on intact U251 cells (flow cytometry) or in OG-solubilized U251 membrane lysates (pull-down); long (~400 kDa), non-glycosaminoglycanylated (300 kDa) and short (220 kDa) isoforms are present; U251 cells lack CSF-1R; also called PTP-β/ζ; cell-surface PTP-ζ
T3 sequence (P23471 25-2315 limits assumed): as the sequence (P23471 25-2315 limits assumed) above

[4] = biological target: T4, human CSF-1R extracellular domain fused to immunoglobulin Fc domain (hCSF-1R-ECD-Fc) (human, UniProt P07333 20-517); assay: SPR (Biacore T100), hCSF-1R-ECD-Fc captured on Protein A, hCSF-1 as analyte; hCSF-1 on hCSF-1R-ECD-Fc
T4 construct: extracellular domain; not shown: immunoglobulin Fc domain
T4 sequence (P07333 20-517): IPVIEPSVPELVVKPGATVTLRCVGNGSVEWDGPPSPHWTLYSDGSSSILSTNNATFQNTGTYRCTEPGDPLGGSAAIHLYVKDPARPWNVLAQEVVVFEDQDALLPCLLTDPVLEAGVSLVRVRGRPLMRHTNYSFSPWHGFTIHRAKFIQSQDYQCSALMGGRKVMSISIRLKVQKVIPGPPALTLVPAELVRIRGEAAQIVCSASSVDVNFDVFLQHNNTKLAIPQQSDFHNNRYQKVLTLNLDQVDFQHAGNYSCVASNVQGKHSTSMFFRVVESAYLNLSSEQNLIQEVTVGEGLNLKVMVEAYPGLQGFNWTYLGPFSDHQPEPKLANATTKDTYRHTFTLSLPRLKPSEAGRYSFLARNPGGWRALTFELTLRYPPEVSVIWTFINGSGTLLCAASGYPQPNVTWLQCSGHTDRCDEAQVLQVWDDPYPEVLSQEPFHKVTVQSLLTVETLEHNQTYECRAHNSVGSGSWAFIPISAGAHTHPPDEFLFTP
Procedure: as §1

human brevican = biological target: T1, human brevican; assay: SPR, brevican immobilized on the chip, hIL-34 as analyte; IL-34 with human brevican
Procedure: as §1

human tenascin-R (hTN-R) = biological target: B1; assay: SPR (Biacore 3000), IL-34 immobilized on CM5 chip, hTN-R as analyte, steady state model; IL-34 with hTN-R
Procedure: as §1

[5] = biological target: T4, human CSF-1R extracellular domain fused …; assay: SPR (Biacore T100), hCSF-1R-ECD-Fc captured on Protein A, hIL-34 as analyte; hIL-34 on hCSF-1R-ECD-Fc
Procedure: as §1

[6] = biological target: T2, human PTP-ζ extracellular domain fused …; assay: SPR (Biacore T100), hPTP-ζ-ECD-Fc captured on Protein A, hIL-34 as analyte, steady state model; hIL-34 on full-length hPTP-ζ ECD-Fc
Procedure: as §1

[7] = biological target: T3, human PTP-ζ (protein tyrosine …); assay: flow cytometry on U251 cells, detection with biotin-labeled anti-FLAG M2 antibody

clonogenicity of U251 cells (colony count at 8 days) [1]: 53%
wound healing of U251 monolayer, time taken for 50% wound closure (t50) [1]: 10 h
Molecule: human pleiotrophin (hPTN) (from UniProt P21246 33-168) (ligand)

Molecule: B1
Kd [2]: ~10 nM

Molecule: B2
binding result [3]: no binding

Molecule: B3
Kd [4]: ~0.01 nM

Molecule: B4
Kd (human brevican): 3000 nM
Kd (human tenascin-R (hTN-R)): ~1000 nM
Kd [5]: ~0.001 nM
Kd [6]: ~100 nM

Molecule: B5
binding result [7]: binds

From patent US20160123962A1 (ALBERT EINSTEIN COLLEGE OF MEDICINE, published 2016)
